Assay [1] relates to directly coated FAP peptides mixture (cFAP). Kind of assay: direct ELISA on coated mixture of FAP peptides. The assay is classed as binding, human. The settings on record: peptides 378-392, 622-636, 721-736. On the procedure: (§1) ELISA assays were performed with varying antibody concentrations to validate the binding of the exemplary antibodies of the present invention to FAP and to be able to determine their half maximal effective concentration (EC50). For the exemplary recombinant human NI-206-18H2, NI-206-20A8, NI-206-6D3, ‘NI-206-14C5, NI-206-34C11, NI-206.82C2, NI-206.59B4, NI-206.22F7, NI-206.27E8, NI-206.12G4 and NI-206.17A6 antibodies, 96-well microplates (Costar, Corning, USA) were coated with FAP, with a mixture of the 3 peptides or with BSA (Sigma-Aldrich, Buchs, Switzerland) diluted to a concentration of 5 μg/ml in carbonate ELISA coating buffer (15 mM Na2CO3, 35 mM NaHCO3, pH 9.4) for the direct ELISA. For the capture ELISA, the microplates were coated with mouse anti-His monoclonal antibody (Clontech) diluted to a concentration of 3 μg/ml in PBS, the plates were then blocked, FAP or BSA were diluted to a concentration of 2 μg/ml in PBS and added to the plates to be captured. The binding efficiency of the antibodies was then tested.
(§2) The EC50 values were estimated by a non-linear regression using GraphPad Prism (San Diego, USA) software. […] The binding of NI-206.12G4 towards sFAP was not tested.

Assay [2] concerns the target T1, directly coated FAP (FAP) (Homo sapiens, UniProt Q12884).
T1 sequence (Q12884 1-760): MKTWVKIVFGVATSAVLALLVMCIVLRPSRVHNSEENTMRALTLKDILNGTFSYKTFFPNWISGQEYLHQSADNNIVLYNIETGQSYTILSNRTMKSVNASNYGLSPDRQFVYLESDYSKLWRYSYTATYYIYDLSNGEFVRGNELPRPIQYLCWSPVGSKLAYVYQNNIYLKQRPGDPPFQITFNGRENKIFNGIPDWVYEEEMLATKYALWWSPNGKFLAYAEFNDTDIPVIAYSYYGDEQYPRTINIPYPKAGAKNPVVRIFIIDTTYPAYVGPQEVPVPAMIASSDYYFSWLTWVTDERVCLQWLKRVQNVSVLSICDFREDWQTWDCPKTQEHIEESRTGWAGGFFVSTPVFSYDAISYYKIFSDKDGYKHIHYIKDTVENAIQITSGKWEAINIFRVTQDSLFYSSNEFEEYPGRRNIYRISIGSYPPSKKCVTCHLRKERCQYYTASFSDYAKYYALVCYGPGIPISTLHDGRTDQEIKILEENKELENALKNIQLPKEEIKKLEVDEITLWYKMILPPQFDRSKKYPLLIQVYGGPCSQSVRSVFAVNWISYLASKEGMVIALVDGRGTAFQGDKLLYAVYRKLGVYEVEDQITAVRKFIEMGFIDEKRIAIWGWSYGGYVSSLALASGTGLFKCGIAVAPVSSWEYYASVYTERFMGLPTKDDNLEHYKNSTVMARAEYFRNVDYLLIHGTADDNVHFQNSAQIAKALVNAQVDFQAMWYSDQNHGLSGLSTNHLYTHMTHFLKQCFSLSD
Put plainly: direct ELISA on directly coated FAP. The assay is classed as binding. As to conditions: ELISA, varying antibody concentrations. On the procedure:
as §1, §2
On the technique in general: ELISA stands for enzyme-linked immunosorbent assay.

Assay [3] deals with T2, transmembrane human FAP on FAP expressing HEK293 cells (Homo sapiens, UniProt Q12884).
T2 construct: HEK293 cells were transduced with retrovirus encoding full length human FAP cDNA; host or cells: HEK293 (retroviral transduction, G418 selected)
T2 sequence (Q12884 1-760): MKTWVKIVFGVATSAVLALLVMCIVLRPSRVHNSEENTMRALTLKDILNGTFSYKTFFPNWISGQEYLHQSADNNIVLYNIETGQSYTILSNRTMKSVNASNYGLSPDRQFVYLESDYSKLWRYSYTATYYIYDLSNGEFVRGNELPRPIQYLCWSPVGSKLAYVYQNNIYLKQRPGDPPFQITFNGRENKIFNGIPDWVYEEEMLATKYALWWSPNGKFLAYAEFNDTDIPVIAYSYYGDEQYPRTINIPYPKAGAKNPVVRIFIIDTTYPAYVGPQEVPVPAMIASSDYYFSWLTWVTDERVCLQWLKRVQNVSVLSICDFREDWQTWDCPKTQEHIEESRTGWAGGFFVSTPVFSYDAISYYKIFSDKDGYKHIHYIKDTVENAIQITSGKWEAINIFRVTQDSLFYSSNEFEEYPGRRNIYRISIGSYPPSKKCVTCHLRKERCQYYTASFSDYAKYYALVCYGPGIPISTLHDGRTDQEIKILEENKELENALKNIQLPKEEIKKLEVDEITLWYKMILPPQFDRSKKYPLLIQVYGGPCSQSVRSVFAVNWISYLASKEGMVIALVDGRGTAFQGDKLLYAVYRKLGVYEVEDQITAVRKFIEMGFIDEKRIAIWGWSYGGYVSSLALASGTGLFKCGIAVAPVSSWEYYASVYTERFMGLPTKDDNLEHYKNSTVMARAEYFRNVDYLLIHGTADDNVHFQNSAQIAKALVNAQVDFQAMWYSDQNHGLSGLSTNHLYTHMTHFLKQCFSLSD
Kind of assay: flow cytometry of Cy5 labelled antibodies on FAP-HEK293 cells in pH adjusted PBS. Type of assay: cell-based. The settings on record: pH 7.4 to 6.2; 0.1-100 nM Cy5 labelled antibody. How it is done: To evaluate the binding of NI-206.82C2, NI-206.59B4, NI-206.27E8, NI-206.12G4, NI-206.18H2 and NI-206.6D3 to transmembrane human FAP, an FAP expressing HEK293 cell line was received from the National Institutes of Health, Bethesda, Md. The generation of this FAP expressing HEK293 cells is described in: J. Exp. Med. 2013 Vol. 210 No. 6 1125-1135. HEK293 cells were transduced with retrovirus encoding full length human FAP cDNA. Cloning was performed using Fast Cloning Pack and FastDigest restriction enzymes (both from Fermentas). Transient retroviral supernatants were generated by transfecting 293GP cells with the FAP plasmid using Lipofectamine 2000 (Invitrogen). Retroviral supernatants were collected at 48 h after transfection and centrifuged onto Retronectin-coated (10 μg/ml; Takara), non-tissue culture-treated 6-well plates at 2,000 G for 2 h at 32° C. These retroviral supernatants where then used to transduce HEK293 cells overnight. Transduced FAP-HEK293 cells were selected with 1 mg/ml G418 (CellGro).
500′000 FAP-HEK293 cells were incubated for 1 hr at 4° C. either with Cy5 labelled NI-206.82C2, NI-206.59B4, NI-206.27E8, NI-206.12G4, NI-206.18H2 or NI-206.6D3 or with Cy5 labelled 43A11 at four different antibody concentrations (0.1, 1, 10, and 100 nM) in seven different pH-adjusted PBS buffers (pH 7.4, 6.8, 6.6, 6.5, 6.4, 6.3 and 6.2). PBS buffers were adjusted to using MES monohydrate (Sigma Aldrich). Following incubation, cells were washed 3 times with 200 uL in matched pH-adjusted PBS, spun at 400G for 4 min, and resuspended in 200 μL of pH adjusted buffer.
To analyze antibody binding, fluorescent activated flow cytometry was performed using a BD Fortesa device for forward scatter, side scatter, and the mean fluorescent intensity (MFI) of the Cy5 channel was recorded using a […] laser excitation and 600/20 filter. Viable cells were gated by forward and side scatter, and singlets/doublet exclusion, and the MFI for Cy5 was quantified using FlowJo software Version 10.1.
A general note: Flow cytometry measures light scatter and fluorescence of single cells or particles in a stream.

B1: NI-206.18H2: human-derived recombinant anti-FAP antibody; VH SEQ ID NO: 41, VL SEQ ID NO: 43 (antibody, listed as Homo sapiens, V domains shown)
VH: QVQLQESGPRLVKPSETLSLTCTVSGYSISNGYYWGWIRQPPGQGLEWIASVWHSGNTYHNPSLKSRVTILVDTLKNQFSLNLKSVTAADTALYYCARSYTRNDVGAFETWGQGTMVTVSS
VL: SYELTQPPSVSVSPGQTARIACSGDELPKRYAYWYQQKSGQAPVLVMYEDTKRPSGIPERLSGSSSGTVTTLTISGAQVEDEADYYCYSTAPSGNHTFVFGTGTRVTVL
B1: the “EC50 to the directly coated FAP peptides mixture (cFAP)” value (from here on “EC50”) in assay [1] is “did not show any binding”. For the same molecule, in assay [2], the “binding to the directly coated FAP” value was “specifically, strongly and similarly bind”. Moreover, in assay [3], the “paratope-specific avidity (ΔMFI) under acidic conditions vs. at pH 7.4” value was “increased”.

B2: NI-206.82C2: human-derived recombinant anti-FAP antibody; VH SEQ ID NO: 2 or 4 (PIMC), VL SEQ ID NO: 6 (antibody, V domains shown)
VH: QVQLQQSGPGLVKPSQTLSLTCAISGDSVSSNSVTWNWIRQSPSRGLEWLGRTYYRSKWYNDYAVSVKGRITINPDTSKNQFYLQLKSVTPEDAAVYYCARDSSILYGDYWGQGTLVTVSS
VL: QAVLTQPSSLSASPGASASLTCTLPSGINVGTYRIFWFQQKPGSPPQYLLSYKSDSDNHQGSGVPSRFSGSKDASANAGILLISGLQSEDEADYYCMIWHSSAWVFGGGTKLTVL
With B2, in assay [1], the “EC50” value is “did not show any binding”. Moreover, the “binding to the directly coated FAP” value in assay [2] was “less efficiently”. The “paratope-specific avidity (ΔMFI) under acidic conditions vs. at pH 7.4” value in assay [3] is recorded as “increased”.

B3: NI-206.6D3: human-derived recombinant anti-FAP antibody; VH SEQ ID NO: 49, VL SEQ ID NO: 51 (antibody, listed as Homo sapiens, V domains shown)
VH: EVQLVESGGGLVKPGESLRLSCAASGFTFSKAWMNWVRQGPGKGLEWVGRVKSKTDGGTTDYAAPVKGRFTISRDDSKDTVFLQMNSLKTEDTAVYYCSIQFIVVGDRGRDDQYMDVWGKGTTVTVSS
VL: SYVLTQPPSVSVSPGQTARITCSGDALPKQYAFWYQQKPGQAPVIMIYKDNQRPSGIPERFSGSSSGTTVTLTISGVQTEDEADYYCQSADSTNTHVVFGGGTKLTVL
B3: the “EC50” value in assay [1] was “did not show any binding”. In assay [2], the “binding to the directly coated FAP” value was “strongly and similarly bind”. Further, the “paratope-specific avidity (ΔMFI) under acidic conditions vs. at pH 7.4” value in assay [3] is given as “increased”.

(Values after patent US20180022822A1, “NOVEL ANTI-FIBROBLAST ACTIVATION PROTEIN (FAP) BINDING AGENTS AND USES THEREOF” (Mabimmune Diagnostics AG, priority 2016, published 2018).)
